The assay has as its target His-Rac2 (hexahistidine-tagged Rac2^G12V, aa 2-177) (human, UniProt P15153 2-177, G12V). The assay is described as follows: SPR. Background: In SPR one partner is held on a chip, and binding of the other changes the refractive index at the surface.

B1: c-myc epitope-tagged human PLCγ2 (PLCγ2-222, wild type) (enzyme)
chain: MSTTVNVDSLAEYEKSQIKRALELGTVMTVFSFRKSTPERRTVQVIMETRQVAWSKTADKIEGFLDIMEIKEIRPGKNSKDFERAKAVRQKEDCCFTILYGTQFVLSTLSLAADSKEDAVNWLSGLKILHQEAMNASTPTIIESWLRKQIYSVDQTRRNSISLRELKTILPLINFKVSSAKFLKDKFVEIGAHKDELSFEQFHLFYKKLMFEQQKSILDEFKKDSSVFILGNTDRPDASAVYLHDFQRFLIHEQQEHWAQDLNKVRERMTKFIDDTMRETAEPFLFVDEFLTYLFSRENSIWDEKYDAVDMQDMNNPLSHYWISSSHNTYLTGDQLRSESSPEAYIRCLRMGCRCIELDCWDGPDGKPVIYHGWTRTTKIKFDDVVQAIKDHAFVTSSFPVILSIEEHCSVEQQRHMAKAFKEVFGDLLLTKPTEASADQLPSPSQLREKIIIKHKKLGPRGDVDVNMEDKKDEHKQQGELYMWDSIDQKWTRHYCAIADAKLSFSDDIEQTMEEEVPQDIPPTELHFGEKWFHKKVEKRTSAEKLLQEYCMETGGKDGTFLVRESETFPNDYTLSFWRSGRVQHCRIRSTMEGGTLKYYLTDNLTFSSIYALIQHYRETHLRCAEFELRLTDPVPNPNPHESKPWYYDSLSRGEAEDMLMRIPRDGAFLIRKREGSDSYAITFRARGKVKHCRINRDGRHFVLGTSAYFESLVELVSYYEKHSLYRKMRLRYPVTPELLERYNMERDINSLYDVSRMYVDPSEINPSMPQRTVKALYDYKAKRSDELSFCRGALIHNVSKEPGGWWKGDYGTRIQQYFPSNYVEDISTADFEELEKQIIEDNPLGSLCRGILDLNTYNVVKAPQGKNQKSFVFILEPKQQGDPPVEFATDRVEELFEWFQSIREITWKIDTKENNMKYWEKNQSIAIELSDLVVYCKPTSKTKDNLENPDFREIRSFVETKADSIIRQKPVDLLKYNQKGLTRVYPKGQRVDSSNYDPFRLWLCGSQMVALNFQTADKYMQMNHALFSLNGRTGYVLQPESMRTEKYDPMPPESQRKILMTLTVKVLGARHLPKLGRSIACPFVEVEICGAEYDNNKFKTTVVNDNGLSPIWAPTQEKVTFEIYDPNLAFLRFVVYEEDMFSDPNFLAHATYPIKAVKSGFRSVPLKNGYSEDIELASLLVFCEMRPVLESEEELYSSCRQLRRRQEELNNQLFLYDTHQNLRNANRDALVKEFSVNENQLQLYQEKCNKRLREKRVSNSKFYS
Broadly, the Kd is the free concentration of one partner at which half of the binding sites on the other are occupied at equilibrium, for simple one-to-one binding. A lower Kd goes with higher affinity. A word on the koff: it is a measure of how fast the partners let go of each other. A high value points to a short-lived complex. In general, kon refers to the rate constant with which the complex forms. As to B1, the Kd was found to be 3.9 µM, the koff is 0.0031 s⁻¹ and the kon amounted to 806 M⁻¹ s⁻¹.

B2: PLCγ2 spPH (aa 471-913, Δ516-841), wild type (domain or fragment)
chain: GGSGGSKKDEHKQQGELYMWDSIDQKWTRHYCAIADAKLSFSDDIEQTMEEDNPLGSLCRGILDLNTYNVVKAPQGKNQKSFVFILEPKQQGDPPVEFATDRVEELFEWFQSIREITWKIDTK
Take B2: binding was put at a Kd of 17 µM, the koff came out at 0.0016 s⁻¹ and the kon stood at 93.8 M⁻¹ s⁻¹.

B3: PLCγ1-122 (PLCγ1 with both portions of the split PH domain of PLCγ2), c-myc epitope-tagged (enzyme)
chain: MAGAASPCANGCGPGAPSDAEVLHLCRSLEVGTVMTLFYSKKSQRPERKTFQVKLETRQITWSRGADKIEGAIDIREIKEIRPGKTSRDFDRYQEDPAFRPDQSHCFVILYGMEFRLKTLSLQATSEDEVNMWIKGLTWLMEDTLQAPTPLQIERWLRKQFYSVDRNREDRISAKDLKNMLSQVNYRVPNMRFLRERLTDLEQRSGDITYGQFAQLYRSLMYSAQKTMDLPFLEASTLRAGERPELCRVSLPEFQQFLLDYQGELWAVDRLQVQEFMLSFLRDPLREIEEPYFFLDEFVTFLFSKENSVWNSQLDAVCPDTMNNPLSHYWISSSHNTYLTGDQFSSESSLEAYARCLRMGCRCIELDCWDGPDGMPVIYHGHTLTTKIKFSDVLHTIKEHAFVASEYPVILSIEDHCSIAQQRNMAQYFKKVLGDTLLTKPVEISADGLPSPNQLKRKILIKHKKLAEGSAYEEVPTSMMYMEDKKDEHKQQGELYMWDSIDQKWTRHYCAIADAKLSFSDDIEQTMGNEDEEEPKEVSSSTELHSNEKWFHGKLGAGRDGRHIAERLLTEYCIETGAPDGSFLVRESETFVGDYTLSFWRNGKVQHCRIHSRQDAGTPKFFLTDNLVFDSLYDLITHYQQVPLRCNEFEMRLSEPVPQTNAHESKEWYHASLTRAQAEHMLMRVPRDGAFLVRKRNEPNSYAISFRAEGKIKHCRVQQEGQTVMLGNSEFDSLVDLISYYEKHPLYRKMKLRYPINEEALEKIGTAEPDYGALYEGRNPGFYVEANPMPTFKCAVKALFDYKAQREDELTFIKSAIIQNVEKQEGGWWRGDYGGKKQLWFPSNYVEEMVNPVALEPEREHLDENSPLGDLCRGILDLNTYNVVKAPQGKNQKSFVFILEPKQQGDPPVEFATDRVEELFEWFQSIREITWKIDTKETEGKIMERRKKIALELSELVVYCRPVPFDEEKIGTERACYRDMSSFPETKAEKYVNKAKGKKFLQYNRLQLSRIYPKGQRLDSSNYDPLPMWICGSQLVALNFQTPDKPMQMNQALFMTGRHCGYVLQPSTMRDEAFDPFDKSSLRGLEPCAISIEVLGARHLPKNGRGIVCPFVEIEVAGAEYDSTKQKTEFVVDNGLNPVWPAKPFHFQISNPEFAFLRFVVYEEDMFSDQNFLAQATFPVKGLKTGYRAVPLKNNYSEDLELASLLIKIDIFPAKQENGDLSPFSGTSLRERGSDASGQLFHGRAREGSFESRYQQPFEDFRISQEHLADHFDSRERRAPRRTRVNGDNRL
In the case of B3, binding was put at a Kd of 5.8 µM, the koff amounted to 0.0025 s⁻¹ and the on-rate constant (kon) is 434 M⁻¹ s⁻¹.

The values above are taken from publication PMC2573054 (The Journal of Biological Chemistry, 2008).
